The source of these data is the RNAGym collection of RNA variant scans (doi:10.1021/acssynbio.7b00057).

The chains are these.
B1: Pistol ribozyme (parent)
chain: GGGUCGUUGUUCCAUAAUCGCGUGGAUAUGGCACGCAAGUUUCUACCGGGCACCGUAAAUGUCCGACUGGAGCCGUUCGGGCGGCUAUAAACAGACCUCAGGCCCGAAGCGUGGCGGCACCUGCCGCCGGUGGUAAAAAAGAUCGGAAGAGCACACGUCU

The variants in this data set derive from B1. In words: aptazyme ON/OFF ratio, guanine; higher = stronger switching; co-transcriptional cleavage with and without guanine.
U7G U8A U10G U11C C12A C13U: the “aptazyme ON/OFF ratio” value worked out at 1.2.
As for U7G U8A U10G U11C C12A C13G, the “aptazyme ON/OFF ratio” value was found to be 1.17.
For the variant U7G U8A U10G U11C C12A C13A, the “aptazyme ON/OFF ratio” value was 1.43.
Next, U7G U8C G9A U10G C12G C13U: 1.15; U7G U8C G9A U10G C12G C13A: 1.12; U7G U8C G9A U10G C12G C13G: 1.05.
As to U7G U8A U10G U11G C12G, the “aptazyme ON/OFF ratio” value is 1.5.
As to U7G U8A U10G U11G C12U, the “aptazyme ON/OFF ratio” value was 1.26.
For U7G U8A U10G U11G C12A, the “aptazyme ON/OFF ratio” value was determined as 1.3.
On to U7G U8C G9A U10A U11A C12A C13U, for which the “aptazyme ON/OFF ratio” value was determined as 1.17.
Next, U7G U8C G9A U10A U11A C12A C13G: 1.12; U7G U8C G9A U10A U11A C12A C13A: 1.21; U7G U8C G9A U10A U11G C13U: 1.23.
In the case of U7G U8C G9A U10A U11G C13A, the “aptazyme ON/OFF ratio” value is 1.13.
To U7G U8C G9A U10A U11G C13G belongs 1.04.
As to U7G U8A U11C C12G C13A, the “aptazyme ON/OFF ratio” value was found to be 1.22.
Take U7G U8A U11C C12G C13G: the “aptazyme ON/OFF ratio” value is 1.2.
With U7G U8A U11C C12G C13U, the “aptazyme ON/OFF ratio” value came out at 1.32.
As for U7G U8A U10G C13U, the “aptazyme ON/OFF ratio” value was determined as 1.29.
For the variant U7G U8A U10G C13A, the “aptazyme ON/OFF ratio” value was 1.3.
Regarding U7G U8A U10G C13G, the “aptazyme ON/OFF ratio” value was 1.32.
Next, U7G U8C G9A U10G U11A C12U C13A: 1.09; U7G U8C G9A U10G U11A C12U C13U: 1.13.
Consider U7G U8C G9A U10G U11A C12U C13G, for which the “aptazyme ON/OFF ratio” value was determined as 1.09.
On to U7G U8C G9A U10G C13A, for which the “aptazyme ON/OFF ratio” value stood at 1.28.
Next, U7G U8C G9A U10G C13G: 1.19.
With U7G U8C G9A U10G C13U, the “aptazyme ON/OFF ratio” value was 1.26.
As for U7G U8C G9A U10G U11A C12U, the “aptazyme ON/OFF ratio” value was determined as 1.06.
U7G U8C G9A U10G U11A C12G: the “aptazyme ON/OFF ratio” value came out at 1.08.
Consider U7G U8C G9A U10G U11A C12A, for which the “aptazyme ON/OFF ratio” value is 1.11.
Take U7G U8C G9A C12U C13A: the “aptazyme ON/OFF ratio” value is 1.03.
To U7G U8C G9A C12U C13U belongs 1.03; to U7G U8C G9A C12U C13G, 1.02.
For the variant U7G U8C G9A U10A U11A C13U, the “aptazyme ON/OFF ratio” value is 1.21.
Next, U7G U8C G9A U10A U11A C13G: 1.04; U7G U8C G9A U10A U11A C13A: 1.09.
As for U7G U8C G9A U10G U11C C12U C13G, the “aptazyme ON/OFF ratio” value is 1.16.
Consider U7G U8C G9A U10G U11C C12U C13A, for which the “aptazyme ON/OFF ratio” value came out at 1.12.
With U7G U8C G9A U10G U11C C12U C13U, the “aptazyme ON/OFF ratio” value came out at 1.12.
Turning to U7G U8C G9A U10A U11C C12G, the “aptazyme ON/OFF ratio” value was determined as 1.13.
For the variant U7G U8C G9A U10A U11C C12A, the “aptazyme ON/OFF ratio” value came to 1.31.
Next, U7G U8C G9A U10A U11C C12U: 1.11; U7G U8C G9A U10C U11A C13U: 1.28; U7G U8C G9A U10C U11A C13G: 1.07.
As for U7G U8C G9A U10C U11A C13A, the “aptazyme ON/OFF ratio” value worked out at 1.18.
To U7G U8C G9A U10C C12G belongs 1.29.
Regarding U7G U8C G9A U10C C12A, the “aptazyme ON/OFF ratio” value was found to be 1.18.
To U7G U8C G9A U10C C12U belongs 1.37.
On to U7G U8A U11C C12U C13U, for which the “aptazyme ON/OFF ratio” value came to 1.47.
U7G U8A U11C C12U C13G: the “aptazyme ON/OFF ratio” value stood at 1.09.
Regarding U7G U8A U11C C12U C13A, the “aptazyme ON/OFF ratio” value was 1.32.
On to U7G U8C G9A U10A U11C C12U C13U, for which the “aptazyme ON/OFF ratio” value is 1.16.
In the case of U7G U8C G9A U10A U11C C12U C13A, the “aptazyme ON/OFF ratio” value was 1.14.
On to U7G U8C G9A U10A U11C C12U C13G, for which the “aptazyme ON/OFF ratio” value was 1.13.
As for U7G U8C G9A U10A U11G C12G C13G, the “aptazyme ON/OFF ratio” value came to 1.14.
With U7G U8C G9A U10A U11G C12G C13A, the “aptazyme ON/OFF ratio” value was determined as 1.08.
On to U7G U8C G9A U10A U11G C12G C13U, for which the “aptazyme ON/OFF ratio” value worked out at 1.09.
With U7G U8A U11A C13A, the “aptazyme ON/OFF ratio” value is 1.45.
To U7G U8A U11A C13G belongs 1.15; to U7G U8A U11A C13U, 1.4; to U7G U8A U10G C12U C13U, 1.12.
Next, U7G U8C G9A U10C U11A C12G C13U: 1.33; U7G U8C G9A U10C U11A C12G C13A: 1.06.
To U7G U8C G9A U10C U11A C12G C13G belongs 1.21; to U7G U8C G9A U10C U11G, 1.5.
With U7G U8C G9A U10C U11C, the “aptazyme ON/OFF ratio” value was 1.16.
On to U7G U8C G9A U10C U11A, for which the “aptazyme ON/OFF ratio” value worked out at 3.52.
Regarding U7G U8A U11G C12A C13A, the “aptazyme ON/OFF ratio” value was found to be 1.24.
Next, U7G U8A U11G C12A C13U: 1.34.
Take U7G U8A U11G C12A C13G: the “aptazyme ON/OFF ratio” value is 1.37.
With U7G U8A U10G U11A C12U C13G, the “aptazyme ON/OFF ratio” value is 1.37.
U7G U8A U10G U11A C12U C13A: the “aptazyme ON/OFF ratio” value was 1.37.
As for U7G U8A U10G U11A C12U C13U, the “aptazyme ON/OFF ratio” value is 1.1.
Regarding U7G U8C G9A U10C U11G C12G C13A, the “aptazyme ON/OFF ratio” value was 1.08.
For U7G U8C G9A U10C U11G C12G C13G, the “aptazyme ON/OFF ratio” value came out at 1.08.
As for U7G U8C G9A U10C U11G C12G C13U, the “aptazyme ON/OFF ratio” value is 1.05.
As for U7G U8C G9A U10G C12U, the “aptazyme ON/OFF ratio” value was found to be 1.35.
U7G U8C G9A U10G C12A: the “aptazyme ON/OFF ratio” value worked out at 1.18.
On to U7G U8C G9A U10G C12G, for which the “aptazyme ON/OFF ratio” value worked out at 1.13.
To U7G U8C G9A U10G U11A C13G belongs 1.04; to U7G U8C G9A U10G U11A C13U, 1.05.
As for U7G U8C G9A U10G U11A C13A, the “aptazyme ON/OFF ratio” value worked out at 1.05.
As for U7G U8C G9A U10C U11G C12U C13A, the “aptazyme ON/OFF ratio” value was determined as 1.26.
Consider U7G U8C G9A U10C U11G C12U C13G, for which the “aptazyme ON/OFF ratio” value came to 1.22.
